US20120135912A1 (PERSEID THERAPEUTICS, published 2012)

Target: T1, human VLA4 (integrin alpha4beta1) on the surface of U937 cells (human, UniProt P13612 34-1032; P05556 21-798)
T1 construct: whole, on cells; Endogenous VLA4 of U937 cells; assay buffer held 1 mM each of CaCl2, MgCl2 and MnCl2; also called cell-surface human VLA4
Test: static cell adhesion assay: calcein-labelled U937 cells on wells coated with 7D-VCAM-1, buffer with 1 mM MnCl2 (Example 13)
Experimental: Prior to assaying, the U937 cells were re-suspended in labeling buffer (RPMI 1640 culture media without phenol red, 10% FBS; Invitrogen), then labeled with 0.5 μg/ml Calcein-AM at 37° C. for 30 minutes on a rotator. Subsequently, the cells were washed three times with labeling buffer then resuspended at 5×10^6 cells/ml in assay buffer (HEPES CaMgMn buffer: 50 mM HEPES, 150 mM NaCl, 1 mM CaCl₂, 1 mM MgCl₂, 1 mM MnCl2 pH 7.4).
The test compounds (i.e., the 2D-VCAM-1 variant polypeptides) were diluted in dilution buffer and added to VCAM-1-coated plates. […] Plates were spun down at 280×g for 5 minutes with assay buffer decanted by inversion before measuring fluorescence intensity (excitation=485 nm, emission=530 nm) with LJL Analyst HT 96.384 (Molecular Devices, Sunnyvale, Calif.).
FIG. 5 is a graph showing the cell adhesion index for anti-VLA4-antibody (used as a positive control for maximal inhibition of cell adherence), dilution buffer alone (“no treatment”, a control to show maximal cell adherence to the immobilized VCAM-1), 2D-VCAM-1 valiant Clone 46 (SEQ ID NO:12), Q38L-2D-VCAM-1 polypeptide (SEQ ID NO:10), and human 2D-VCAM-1 (SEQ ID NO:2). The cell adhesion index was calculated as (fluorescence intensity, VCAM-coated well)/(fluorescence intensity, non-CAM-1-coated well). […]

T1 sequence (P13612 34-1032, chain 1 of 2): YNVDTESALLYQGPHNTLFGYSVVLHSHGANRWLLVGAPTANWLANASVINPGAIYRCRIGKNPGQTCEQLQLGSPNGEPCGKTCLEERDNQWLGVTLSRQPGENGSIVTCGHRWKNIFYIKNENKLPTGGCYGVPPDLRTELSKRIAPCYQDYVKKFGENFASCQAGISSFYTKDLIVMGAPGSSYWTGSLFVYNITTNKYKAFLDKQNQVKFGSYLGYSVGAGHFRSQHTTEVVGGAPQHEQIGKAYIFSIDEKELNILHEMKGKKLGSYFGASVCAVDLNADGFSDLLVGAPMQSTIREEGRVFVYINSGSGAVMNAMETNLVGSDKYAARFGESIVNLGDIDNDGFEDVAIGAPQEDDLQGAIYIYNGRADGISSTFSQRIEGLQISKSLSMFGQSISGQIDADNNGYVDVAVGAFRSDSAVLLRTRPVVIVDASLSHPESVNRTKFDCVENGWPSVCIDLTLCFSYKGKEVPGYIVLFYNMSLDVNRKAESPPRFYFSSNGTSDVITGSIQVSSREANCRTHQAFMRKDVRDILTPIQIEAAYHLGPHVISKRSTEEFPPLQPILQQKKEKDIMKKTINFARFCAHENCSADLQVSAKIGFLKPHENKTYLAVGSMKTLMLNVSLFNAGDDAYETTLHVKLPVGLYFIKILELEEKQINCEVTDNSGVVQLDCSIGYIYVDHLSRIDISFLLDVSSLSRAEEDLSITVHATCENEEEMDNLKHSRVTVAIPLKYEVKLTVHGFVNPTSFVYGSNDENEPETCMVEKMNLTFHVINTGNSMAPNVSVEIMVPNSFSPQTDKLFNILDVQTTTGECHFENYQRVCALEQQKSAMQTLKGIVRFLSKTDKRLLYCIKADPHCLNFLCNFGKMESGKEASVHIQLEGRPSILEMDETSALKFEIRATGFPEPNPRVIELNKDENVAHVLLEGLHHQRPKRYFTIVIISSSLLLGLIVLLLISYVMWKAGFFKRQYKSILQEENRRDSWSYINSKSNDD
T1 sequence (P05556 21-798, chain 2 of 2): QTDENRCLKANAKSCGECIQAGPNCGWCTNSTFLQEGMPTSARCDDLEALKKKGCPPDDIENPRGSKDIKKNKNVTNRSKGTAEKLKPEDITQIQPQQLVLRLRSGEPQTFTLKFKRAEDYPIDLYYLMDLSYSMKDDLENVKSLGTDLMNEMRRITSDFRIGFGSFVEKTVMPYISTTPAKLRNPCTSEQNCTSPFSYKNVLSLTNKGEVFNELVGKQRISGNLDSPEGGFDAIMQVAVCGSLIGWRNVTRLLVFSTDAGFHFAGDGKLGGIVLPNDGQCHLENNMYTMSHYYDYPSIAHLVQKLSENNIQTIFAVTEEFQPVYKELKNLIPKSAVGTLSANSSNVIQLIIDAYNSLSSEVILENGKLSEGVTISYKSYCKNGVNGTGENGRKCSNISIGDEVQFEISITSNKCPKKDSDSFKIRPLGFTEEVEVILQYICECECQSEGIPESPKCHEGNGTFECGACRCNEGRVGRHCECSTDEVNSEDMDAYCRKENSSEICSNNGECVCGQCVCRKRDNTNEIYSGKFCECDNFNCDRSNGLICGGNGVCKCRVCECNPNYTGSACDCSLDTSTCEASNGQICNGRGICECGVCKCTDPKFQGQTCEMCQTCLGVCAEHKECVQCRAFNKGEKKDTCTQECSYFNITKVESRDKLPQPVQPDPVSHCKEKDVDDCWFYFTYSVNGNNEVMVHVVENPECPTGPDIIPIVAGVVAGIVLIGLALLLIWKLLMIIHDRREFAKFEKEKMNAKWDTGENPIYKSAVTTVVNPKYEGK

- binding result: binds
B1: recombinant human 7D-VCAM-1 (ligand)
chain: FKIETTPESRYLAQIGDSVSLTCSTTGCESPFFSWRTQIDSPLNGKVTNEGTTSTLTMNPVSFGNEHSYLCTATCESRKLEKGIQVEIYSFPKDPEIHLSGPLEAGKPITVKCSVADVYPFDRLEIDLLKGDHLMKSQEFLEDADRKSLETKSLEVTFTPVIEDIGKVLVCRAKLHIDEMDSVPTVRQAVKELQVYISPKNTVISVNPSTKLQEGGSVTMTCSSEGLPAPEIFWSKKLDNGNLQHLSGNATLTLIAMRMEDSGIYVCEGVNLIGKNRKEVELIVQEKPFTVEISPGPRIAAQIGDSVMLTCSVMGCESPSFSWRTQIDSPLSGKVRSEGTNSTLTLSPVSFENEHSYLCTVTCGHKKLEKGIQVELYSFPRDPEIEMSGGLVNGSSVTVSCKVPSVYPLDRLEIELLKGETILENIEFLEDTDMKSLENKSLEMTFIPTIEDTGKALVCQAKLHIDDMEFEPKQRQSTQTLYVNVAPRDTTVLVSPSSILEEGSSVNMTCLSQGFPAPKILWSRQLPNGELQPLSENATLTLISTKMEDSGVYLCEGINQAGRSRKEVELIIQVTPKDIKLTAFPSESVKEGDTVIISCTCGNVPETWIILKKKAETGDTVLKSIDGAYTIRKAQLKDAGVYECESKNKVGSQLRSLTL
notes: Bought from R&D Systems; also called immobilized VCAM-1; 7 domain form of VCAM-1
